Assay results: patent publication US20190201542A1 (AbbVie / Abbott, published 2019)
Where a chain is given by its changes, count along the chain named.

T1: human DLL3 (human, UniProt Q9NYJ7 27-492, limits assumed)
T1 construct: also called hDLL3; DLL3 protein
T1 sequence: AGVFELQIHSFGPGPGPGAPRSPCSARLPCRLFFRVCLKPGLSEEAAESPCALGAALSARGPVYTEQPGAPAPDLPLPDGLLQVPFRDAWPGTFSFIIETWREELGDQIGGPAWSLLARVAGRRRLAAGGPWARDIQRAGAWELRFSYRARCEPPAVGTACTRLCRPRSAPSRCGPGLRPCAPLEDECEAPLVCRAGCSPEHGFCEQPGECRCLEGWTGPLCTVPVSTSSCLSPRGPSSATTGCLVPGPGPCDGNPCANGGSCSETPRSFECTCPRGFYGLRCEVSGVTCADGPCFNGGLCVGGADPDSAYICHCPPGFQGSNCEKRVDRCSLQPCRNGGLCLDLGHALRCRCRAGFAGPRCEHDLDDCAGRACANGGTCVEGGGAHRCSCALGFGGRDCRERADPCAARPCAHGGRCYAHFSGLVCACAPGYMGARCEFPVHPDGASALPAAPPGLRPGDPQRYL

B1: SC16.3 (antibody, V domains shown)
VH: QVTLKESGPGILQPSQTLSLTCSFSGFSLSTSGMGVGWIRQPSGKGLEWLAHIWWDDVKRYNPALKSRLTISKDTSSSQVFLKIASVDTADTATYYCARIADYGGDYYAMDYWGQGTSVTVSS
VL: QIVLTQSPAIMSVSLGERVTMTCTASSSVSSSYLHWYQQKPGSSPKLWIYSTSNLASGVPARFSGSGSGTSYFFTISSMEAEDAATYYCHQYHRSPFTFGAGTKLKIR
notes: murine mAb
B2: SC16.30 (antibody, V domains shown)
VH: QVTLKESGPGILQPSQTLSLTCSFSGFSLSTSGMGVGWIRQPSGKGLEWLAHIWWDDVKRYKPALKSRLTVSKDTSSNQVFLKIATVDAADTGTYYCARIVDGHPPFAYWGQGTLVTVSA
VL: B1 VL with A9T, V13A, S30T, F73S, F74L, Y92F, A101S, K106E, R108K
notes: murine mAb
B3: SC16.19 (antibody, V domains shown)
VH: EVQLQQSGAELVRPGASVKLSCTASGFNIKDSLLHWVKQRPEKGLEWIGWIDPEDGETKYAPNFQDKATITTDSSSNTAYLQLISLTSVDTAIYYCAYGNYVRHFDYWGQGTTLTVSS
VL: DIQMTQSPSSLSASLGGKVTFTCKASQDIHKYVAWYQHKPGKGPRLLIHYTSTLQPGISSRFSGSGSGRDYSFSISNLEPEDIATYYCLQYNNLYTFGGGTKLEIK
notes: murine mAb
B4: SC16.52 (antibody, V domains shown)
VH: QVQLKESGPGLVAPSQSLSITCAVSGFSLTSFAIHWFRKPPGKGLEWLGVIWTGGTTNYNSALMSRLSISKDNSKSQVFLKMNSLQTDDTAMYYCARDDYDNNYAMDYWGQGTSVTVSS
VL: DIQMIQSPSSMFASLGDRVSLSCRASQGIRGTLDWYQQKPNGTIKLLIYSTSNLNSGVPSRFSGSGSGSDYSLTISSLESEDFADYYCLQRNAYPLTFGAGTKLELK
notes: murine mAb
B5: SC16.47 (antibody, V domains shown)
VH: EVQLQQSGPELVKPGASVKISCKASGYSFSRFYMHWVKQSPENSLEWIGEINPSTGGTSYNQKFKGKATLTVDKSSSTAYMQLKSLTSEESAVYYCTRGYGSNCYFDVWGAGTTVTVST
VL: DVVLTQSPLSLPVNIGDQASISCKSTKSLLNSDGFTYLDWYLQRPGQSPQFLIYLVSNRFSGVPDRFSGSGSGTDFTLKISRVEAEDLGVYYCFQSNYLPLTFGAGTKLELR
notes: murine mAb
B6: SC16.49 (antibody, V domains shown)
VH: QVQLQQSGPELVKPGTLVKISCKASGYTFTSYDINWVKQRPGQGLEWIGWIYPGDGNTKYSEKFKGKATLTADKSSSTAYMQLTSLTSENSAVYFCARDYDYPFAYWGQGTLVTVSA
VL: DIKMTQSPSSMYASLGERVTITCKASQDINSYLSWFQQKPGKSPKTLIYRANRLVDGVPSRFSGSGSGQDYSLTITSLEYEDMGIYYCLQYDEFPLTFGAGTKLELK
notes: murine mAb
B7: SC16.55 (antibody, V domains shown)
VH: EVQLVESGGGLVQPKGSLKLSCAVSAFTFTTYAMNWVRQAPGKGLEWVARIRNKSNNYATYYADSVKDRFTISRDDSQSMLYLQMNNLKIEDTAMYYCVFYYDYVYWGQGTLVTVSA
VL: B6 VL with S34N, T76S, L96Y, A100G, L106I
notes: murine mAb
B8: SC16.18 (antibody, V domains shown)
VH: EVKLEESGGGLVQPGESMKLSCAASGFTFSDAWMDWVRQSPEKGLEWVAEIRNKANNHATYYAESVKGKFTISRDDSKSRVYLQMNNLRAADTGIYYCTAYSNFAYWGQGTLVTVST
VL: DIQMTQTTSSLSASLGDRVTISCRASQNIINYLNWYQQKPDGTVKLLIYYTSRLHSGVPSRFSGSGSGTDYSLTISNLEPEDIATYYCQQYSERPYTFGGGTKLEIK
notes: murine mAb
B9: SC16.35 (antibody, V domains shown)
VH: DVQLQESGPGLVKPSQSLSLTCTVTGYSITSDYAWNWIRQFPGNKLEWMGYISYSGSTSYNPSLKSRISITRDTSKNQFFLQLNSVTTEDTATYYCARFYYGSSYAMDYWGQGTSVTVSS
VL: B8 VL with N28D, I30S, P80Q, Y87F, Y91G, S92N, E93T, R94L
notes: murine mAb
B10: SC16.4 (antibody, V domains shown)
VH: QIQLVQSGPELKKPGETVKISCKASGYTFTDYSMHWVKQAPGKGLKWMGWINTETGEPGYADDFKGRFAFSLETSASTAYLQINNLKNEDTATYFCARYDGYAMDYWGQGTSVTVSS
VL: B8 VL with N28D, I30S, P80L, Y87F, Y91G, S92D, E93M, R94L, Y96W
notes: murine mAb
B11: SC16.41 (antibody, V domains shown)
VH: B8 VH with P14F, E16G, A63P, K69R, A91E, A100G, N103S, T117A
VL: B8 VL with N28D, I29V, G68R
notes: murine mAb
B12: SC16.38 (antibody, V domains shown)
VH: EVQLQQSGAELVKPGASVKLSCTVSGFNIKDTYIHWVKQRPEQGLEWIGRIDPANGNTKYDPKFQGKATITADTSSNTAYLQLSSLTSEDTAVYYCARPTGYFEYWGQGTTLTVSS
VL: QIVLTQSPAIMSASPGEKVTMTCSASSSINYMHWYQQKPGTSPKRWIYDTSKLASGVPARFSGSGSGTSYSLTISSMEAEDAATYYCHQRSTWTFGGGTKLEIK
notes: murine mAb
B13: SC16.21 (antibody, V domains shown)
VH: QVQLQQSGPELVKPGASVKISCKASGYAFSSSWMNWVKQRPGKGLEWIGRIYPGDGDTNYNGKFKGKATLTADKSSSTAYMQLSSLTSEDSAVYFCAMGIYNYDGSRYYSMDYWGQGTSVTVSS
VL: DIVMTQSPSSLAMSVGQKVTMSCKSSQSLLNSSNQKNYLAWYQQEPGQSPKLLVSFASTRESGVPDRFTGSGSGTDFTLTISGVQAEDLAVYYCQQHYSIPLTFGAGTKLELK
notes: murine mAb
B14: SC16.29 (antibody, V domains shown)
VH: QVQLQQSGAELARPGASVKLSCKASGYTFTDQYINWVKQRTGQGLEWIGEIYPGRGNTYYNEKFKGKATLTADKSSSTAYMQLSSLTSEDSAVYFCAREDGGYDDAWFAYWGQGTLVTVSA
VL: QIVLTQSPAIMSASPGEKVTITCSASSSVSYMHWFQQKPGTSPKLWIYTTSNLASGVPARFSGSGSGTSYSLTVSRMEAEDAATYYCQQRSLYPYTFGGGTKVEIK
notes: murine mAb
B15: SC16.42 (antibody, V domains shown)
VH: QIQLVQSGPELKKPGETVKISCKASGYTFTTAGMQWVQKMPGKGFKWIGWINTHSGEPKYADDFKGRFAFSLETSASTAYLQISNLKDEDTATFFCAPLWSDSSFAYWGQGTLVTVSA
VL: DVLMTQSPLSLSVSLGDQASISCRSSQNIVHSDRYTYLEWYLQKPGQSPKLLIYGVSNRFSGVPDRFSGSGSGTDFTLKISRVEAEDMGVYYCFQGTHVPYTFGGGTKLEIK
notes: murine mAb
B16: SC16.20 (antibody, V domains shown)
VH: QVQLQQSGTELVRPGTSVRVSCKASGYAFGNHLIEWVKQRPGQGLEWIGVINPGTGGTHYNEKFKDKARLTADKSSNTAYMHLNSLTSDDSAVYFCARSPYDYHEGAMDYWGQGTSVTVSS
VL: EIQMTQSPSSMSASLGDRITITCQATQDIVKNLNWYQQKPGKPPSFLIYYATELAEGVPSRFSGSGSGSDYSLTIRNLESEDFADHYCLQFYEFPFTFGAGTKLELK
notes: murine mAb
B17: SC16.45 (antibody, V domains shown)
VH: QVQLQQSGADLVRPGTSVKVSCKASGYSFTNYLIEWVKQRPGQGLEWIGVINPGSGGTHYNEKFKDKAVLTADKSSTTAHMQLSSLTSDDSAVYFCARSPYDYNDGAMDYWGQGTSVTVSS
VL: B16 VL with S60A, R76S, H86Y, Y87H
notes: murine mAb
B18: SC16.22 (antibody, V domains shown)
VH: QVQLQQPGAELVKPGASVKLSCKASGYTFTTYWMHWVKQRPGQGLEWIGEIDPSDSYTYYNQKFKGKATLTVDKSSSTAYMQLSSLTSEDSAVYYCARGDYGNPYAMDYWGQGSSVTVSS
VL: DIQMTQTTSSLSASLGDRVTISCRASQDIKNYLNWYQQKPDGTVKPLIYYTSRVHSGVPSRFSGSGSGTDYSLTISNLEQEDIATYFCQQGYTLPFTFGSGTKLEIK
notes: murine mAb
B19: SC16.57 (antibody, V domains shown)
VH: EVKLVESGGDLVKPGGSLKLSCAASGFAFSSYDMSWVRQTPEKRLEWVATISSGGSYTYYPDSVKGRFTISRDNVRDTLYLQMSSLRSEDTALYYCARQAIGTYFDYWGQGTTLTVSS
VL: DIVMTQSHKFMSISVGDRVSITCKASQDVSIFVAWYQQKPGQSPKLLIYSASYRYTGVPDRFTGSGSGTDFIFTISSVQAEDLAVYYCQQHYGTPFTFGSGTKLKIR
notes: murine mAb
B20: SC16.5 (antibody, V domains shown)
VH: QVTLKESGPGILQPSQTLSLTCSFSGFSLSTSGMGVGWIRQPSGEGLEWLADIWWDDNKYYNPSLKSRLTISKDTSSNQVFLKITSVDTADTATYYCARRVNYVYDPYYAMDYWGQGTSVTVSS
VL: QIVLTQSPAIMSASPGEKVTMTCSASSSVSYMHWYQQKSGTSPKRWIYDTSKLASGVPARFSGSGSGTSYSLTISSMEAEDAATYYCQQWTRNPLTFGAGTKLELK
notes: murine mAb
B21: SC16.25 (antibody, V domains shown)
VH: B20 VH with A51T, K83N, V104Y
VL: B20 VL with T50S, T91S, R92S
notes: murine mAb

target: T1, human DLL3; assay: screen on immobilized hDLL3 or h293-hDLL3 cells
How it was run: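 Hybridoma supernatants from single cells of mice immunized with human DLL3 were screened after 10 days in culture. Binding by flow cytometry was scored positive when above the control. In the solid-phase ELISA, plates coated with DLL3-His at 0.5 μg/ml were probed with HRP anti-mouse IgG and TMB and read at OD 450.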

Row | binding result | Binder
1 | binds | B1
2 | binds | B2
3 | binds | B3
4 | binds | B4
5 | binds | B5
6 | binds | B6
7 | binds | B7
8 | binds | B8
9 | binds | B9
10 | binds | B10
11 | binds | B11
12 | binds | B12
13 | binds | B13
14 | binds | B14
15 | binds | B15
16 | binds | B16
17 | binds | B17
18 | binds | B18
19 | binds | B19
20 | binds | B20
21 | binds | B21
